Test results reported in PMC6322571, “CARK1 phosphorylates subfamily III members of ABA receptors” (Journal of Experimental Botany, 2018).

T1: His-CARK1-KD (CARK1 kinase domain, residues 50-353) (Arabidopsis thaliana, UniProt Q9LUT0 50-353)
T1 construct: Cytosolic ABA Receptor Kinase 1 (CARK1), Arabidopsis, kinase domain, residues 50-353; also called Cytosolic ABA Receptor Kinase 1 kinase domain; source: E. coli Rosetta (DE3), purified as previously described (Zhang et al., 2018)
T1 sequence (looked up): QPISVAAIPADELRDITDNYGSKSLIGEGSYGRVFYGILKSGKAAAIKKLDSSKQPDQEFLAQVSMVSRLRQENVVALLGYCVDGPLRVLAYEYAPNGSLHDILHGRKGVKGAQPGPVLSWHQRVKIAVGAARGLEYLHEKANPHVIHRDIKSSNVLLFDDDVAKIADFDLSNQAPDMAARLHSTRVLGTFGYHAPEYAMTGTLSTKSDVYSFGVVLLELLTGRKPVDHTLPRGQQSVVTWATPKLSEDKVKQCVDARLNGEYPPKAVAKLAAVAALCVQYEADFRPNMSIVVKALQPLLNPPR

B1: GST-RCAR12 (receptor, Arabidopsis thaliana, UniProt Q8VZS8 1-221, looked up)
chain: MANSESSSSPVNEEENSQRISTLHHQTMPSDLTQDEFTQLSQSIAEFHTYQLGNGRCSSLLAQRIHAPPETVWSVVRRFDRPQIYKHFIKSCNVSEDFEMRVGCTRDVNVISGLPANTSRERLDLLDDDRRVTGFSITGGEHRLRNYKSVTTVHRFEKEEEEERIWTVVLESYVVDVPEGNSEEDTRLFADTVIRLNLQKLASITEAMNRNNNNNNSSQVR
notes: ABA receptor RCAR12 (PYL1), Arabidopsis, subfamily III; also called PYL1; source: E. coli Rosetta (DE3), purified as GST-tag protein; not shown: GST, N-terminal, kept
B2: GST-RCAR14 (receptor, Arabidopsis thaliana, UniProt O80992 1-190, looked up)
chain: MSSSPAVKGLTDEEQKTLEPVIKTYHQFEPDPTTCTSLITQRIHAPASVVWPLIRRFDNPERYKHFVKRCRLISGDGDVGSVREVTVISGLPASTSTERLEFVDDDHRVLSFRVVGGEHRLKNYKSVTSVNEFLNQDSGKVYTVVLESYTVDIPEGNTEEDTKMFVDTVVKLNLQKLGVAATSAPMHDDE
notes: ABA receptor RCAR14, Arabidopsis, subfamily III; source: E. coli Rosetta (DE3), purified as GST-tag protein; not shown: GST, N-terminal, kept
B3: GST-RCAR13 (receptor, Arabidopsis thaliana, UniProt Q9SSM7 1-209, looked up)
chain: MNLAPIHDPSSSSTTTTSSSTPYGLTKDEFSTLDSIIRTHHTFPRSPNTCTSLIAHRVDAPAHAIWRFVRDFANPNKYKHFIKSCTIRVNGNGIKEIKVGTIREVSVVSGLPASTSVEILEVLDEEKRILSFRVLGGEHRLNNYRSVTSVNEFVVLEKDKKKRVYSVVLESYIVDIPQGNTEEDTRMFVDTVVKSNLQNLAVISTASPT
notes: ABA receptor RCAR13, Arabidopsis, subfamily III; source: E. coli Rosetta (DE3), purified as GST-tag protein; not shown: GST, N-terminal, kept

These binders were tested against T1, His-CARK1-KD (CARK1 kinase domain, …) (assay: pull-down; GST-RCARs bound to glutathione Sepharose 4B resin; His-CARK1-KD or His-CARK1-KD^N204A co-incubated 1 h at room temperature; 50 ug of each protein; SDS-PAGE and anti-His blot). Conditions: both partners purified.

Binding result, binds:
B1, B2, B3
